# B1: H2-Kb / Ed8 (parent complex)
# chain 1: AQSVTQPDARVTVSEGASLQLRCKYSYFGTPYLFWYVQYPRQGLQLLLKYYPGDPVVQGVNGFEAEFSKSNSSFHLRKASVHWSDWAVYFCAVSPGSGGKLTLGAGTRLQVNL
# chain 2: DSGVVQSPRHIIKEKGGRSVLTCIPISGHSNVVWYQQTLGKELKFLIQHYEKVERDKGFLPSRFSVQQFDDYHSEMNMSALELEDSAMYFCASSPRASNYTFGSGTRLLVI
# chain 3: not shown
# chain 4: IQKTPQIQVYSRHPPENGKPNILNCYVTQFHPPHIEIQMLKNGKKIPKVEMSDMSFSKDWSFYILAHTEFTPTETDTYACRVKHDSMAEPKTVYWDRDM
# chain 5: SIINFEKL
# B2: H2-Kb / Ed39 (parent complex)
# chain 1: GEQVEQRPPHLSVREGDSAVIICTYTDPNSYYFFWYKQEPGAGLQLLMKVFSSTEINEGQGFTVLLNKKDKQLSLNLTAAHPGDSAVYFCATMSNYNVLYFGSGTKLTVEP
# chain 2: GALVYQYPRRTICKSGTSMRMECQAVGFQATSVAWYRQSPQKTFELIALSTVNSAIKYEQNFTQEKFPISHPNLSFSSMTVLNAYLEDRGLYLCGARDGSYEQYFGPGTRLTVL
# chain 3: not shown
# chain 4: B1 chain 4
# chain 5: SIINFEKL
# Variants of: B1
# Test: % of reporter cells activated (NFAT-GFP), raw
# Note: test concentration or dose not given here.
row,Variant,ratio to parent
1,chain 5 I2G,1.3
2,chain 5 S1F,1.25
3,chain 5 I3E,1.17
4,chain 5 I3V,1.26
5,chain 5 I3G,1.22
6,chain 5 E6D,1.13
7,chain 5 E6H,0.573
8,chain 5 E6F,0.0912
9,chain 5 E6K,1.14
10,chain 5 E6S,0.349
11,chain 5 E6T,0.127
12,chain 5 L8R,1.24
13,chain 5 N4D,0.436
14,chain 5 F5A,1.24
15,chain 5 F5R,1.19
16,chain 5 F5H,1.23

# Variants of: B2
# Test: % of reporter cells activated (NFAT-GFP), raw
row,Variant,ratio to parent
1,chain 5 I3N,0.314
2,chain 5 I3V,0.956
3,chain 5 I3Y,0.0404
4,chain 5 I3P,0.293
5,chain 5 I3F,0.0488
6,chain 5 I3C,0.431
7,chain 5 I3R,0.0638
8,chain 5 I3D,0.402
9,chain 5 S1P,0.00622
10,chain 5 S1Q,0.00347
11,chain 5 S1E,0.00392
12,chain 5 S1A,0.0073
13,chain 5 S1C,0.0621
14,chain 5 S1D,0.00365
15,chain 5 S1T,0.00457
16,chain 5 S1W,0.0114
17,chain 5 K7F,0.0761
18,chain 5 K7A,0.112
19,chain 5 K7L,0.408
20,chain 5 K7I,0.0214

row,Variant,ratio to parent
1,chain 5 E6H,0.0355
2,chain 5 E6R,0.00443
3,chain 5 E6Q,0.0946
4,chain 5 E6C,0.0124
5,chain 5 E6D,0.265
6,chain 5 E6Y,0.0117
7,chain 5 E6T,0.034
8,chain 5 E6N,0.00523
9,chain 5 E6A,0.0073
10,chain 5 E6I,0.00482
11,chain 5 F5I,0.622
12,chain 5 F5M,1.01
13,chain 5 F5A,0.973
14,chain 5 F5D,0.358
15,chain 5 F5V,0.821
16,chain 5 F5E,0.259
17,chain 5 N4S,0.0741
18,chain 5 N4C,0.0192
19,chain 5 N4Y,0.0203
20,chain 5 N4T,0.00203

row,Variant,ratio to parent
1,chain 5 N4P,0.174
2,chain 5 N4V,0.00191
3,chain 5 N4W,0.127
4,chain 5 N4L,0.196
5,chain 5 N4K,0.0498
6,chain 5 I2A,0.954
7,chain 5 I2R,0.593
8,chain 5 I2Y,0.284
9,chain 5 I2D,0.612
10,chain 5 I2V,1.09
11,chain 5 I2Q,0.366
12,chain 5 I2H,0.244
13,chain 5 L8N,0.884
14,chain 5 L8K,0.485
15,chain 5 L8Q,0.617
16,chain 5 L8P,0.453
17,chain 5 L8W,0.468
18,chain 5 L8D,0.425
19,chain 5 L8E,0.361

# — paper PMC11480844 (2024)
